Values of other authors as cited in patent publication US9145575B2, “Detection of protease and protease activity using a single nanocrescent SERS probe” (The Regents of the University of California, priority 2006, dated 2015).

Molecular target: PSA (Homo sapiens, UniProt P07288)
Settings: mouse model

PSA, sequence (P07288 25-261): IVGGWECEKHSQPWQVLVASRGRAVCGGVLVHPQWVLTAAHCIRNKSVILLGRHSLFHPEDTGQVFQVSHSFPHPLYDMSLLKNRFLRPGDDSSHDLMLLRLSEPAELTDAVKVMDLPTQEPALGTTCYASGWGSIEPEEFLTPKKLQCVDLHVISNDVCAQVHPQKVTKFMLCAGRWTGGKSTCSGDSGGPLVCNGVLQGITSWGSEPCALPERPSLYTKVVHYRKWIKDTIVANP

HSSKLQ-L (HSSKLQLAAAC; Synthetic protease substrate)
cleavage by proteases in vivo: cleaved by PSA but not by any other proteases
